Measured values taken from IntAct's records for PubMed 15670823.

Target: cnkr1_human CNKSR1 (UniProt Q969H4)
Sequence (Q969H4 whole entry): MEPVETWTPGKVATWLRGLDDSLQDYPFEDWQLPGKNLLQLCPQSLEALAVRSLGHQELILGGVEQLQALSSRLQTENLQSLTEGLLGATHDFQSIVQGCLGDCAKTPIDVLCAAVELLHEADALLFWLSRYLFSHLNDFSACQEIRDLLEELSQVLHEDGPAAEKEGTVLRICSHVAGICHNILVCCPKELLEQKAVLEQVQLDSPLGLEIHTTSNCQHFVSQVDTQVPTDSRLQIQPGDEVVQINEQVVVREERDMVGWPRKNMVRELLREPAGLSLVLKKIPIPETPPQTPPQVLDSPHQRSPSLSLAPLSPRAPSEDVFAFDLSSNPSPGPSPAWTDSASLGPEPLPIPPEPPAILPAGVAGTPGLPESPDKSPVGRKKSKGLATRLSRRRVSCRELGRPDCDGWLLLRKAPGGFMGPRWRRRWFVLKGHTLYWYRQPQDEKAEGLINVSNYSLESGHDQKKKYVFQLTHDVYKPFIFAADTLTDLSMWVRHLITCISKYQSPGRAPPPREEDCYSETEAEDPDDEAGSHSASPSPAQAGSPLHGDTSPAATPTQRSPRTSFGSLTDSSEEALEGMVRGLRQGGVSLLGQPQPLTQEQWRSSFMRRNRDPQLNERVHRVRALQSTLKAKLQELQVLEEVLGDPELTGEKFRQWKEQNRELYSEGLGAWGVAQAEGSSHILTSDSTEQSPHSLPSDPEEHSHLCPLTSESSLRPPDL

effect of a mutation on the interaction: increasing interaction
Substance: Rho-related GTP-binding protein RhoC (Homo sapiens), P08134 G14V
